According to article PMC7901475:

Biological target: T1, PsdR (Pseudomonas aeruginosa PAO1?) (UniProt Q9HVS2)
T1 sequence: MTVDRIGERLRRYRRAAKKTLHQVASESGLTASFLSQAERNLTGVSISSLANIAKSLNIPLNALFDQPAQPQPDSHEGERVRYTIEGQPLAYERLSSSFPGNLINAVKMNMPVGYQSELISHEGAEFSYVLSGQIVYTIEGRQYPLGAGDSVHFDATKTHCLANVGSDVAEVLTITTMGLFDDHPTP
Experiment: EMSA
Details: EMSA: 0.5 nM Cy5 probe, 10 mM Tris-HCl pH 8, 50 mM KCl, 10 mM MgCl2, 10% glycerol, 0.1 mg/ml BSA, 25 ng/ul poly(dI-dC), 15 min at 25 C; competition with 100 nM …

How did the binding turn out when “CCCGAACCCCTATTTTTAAGTGTGACTGAAAATTTGTTTTGACCTGAATCAGTTCTCGACTTAAATTTCAGCCCGGTCCAGACGAGGAGAACA (double strand) [pPA4498 (mdpA promoter) half-site mutant]” was run?
Its binding is “binds more weakly”.

How did the binding turn out when “CCCGAACCCCTATTTTTAAGTGTGACTGAAAATTTGTTTTGACCTGAATTTAAGCTCGACTTAAATTTCAGCCCGGTCCAGACGAGGAGAACA (double strand) [pPA4498 (mdpA promoter) wild type]” was run?
The binding was “binds”.
